US20210238260A1 (published 2021)

T1: Factor VIIIa (FVIIIa), from recombinant FVIII (Kogenate FS; Bayer healthcare) activated with alpha-thrombin (UniProt P00451 20-2351)
T1 sequence (looked up): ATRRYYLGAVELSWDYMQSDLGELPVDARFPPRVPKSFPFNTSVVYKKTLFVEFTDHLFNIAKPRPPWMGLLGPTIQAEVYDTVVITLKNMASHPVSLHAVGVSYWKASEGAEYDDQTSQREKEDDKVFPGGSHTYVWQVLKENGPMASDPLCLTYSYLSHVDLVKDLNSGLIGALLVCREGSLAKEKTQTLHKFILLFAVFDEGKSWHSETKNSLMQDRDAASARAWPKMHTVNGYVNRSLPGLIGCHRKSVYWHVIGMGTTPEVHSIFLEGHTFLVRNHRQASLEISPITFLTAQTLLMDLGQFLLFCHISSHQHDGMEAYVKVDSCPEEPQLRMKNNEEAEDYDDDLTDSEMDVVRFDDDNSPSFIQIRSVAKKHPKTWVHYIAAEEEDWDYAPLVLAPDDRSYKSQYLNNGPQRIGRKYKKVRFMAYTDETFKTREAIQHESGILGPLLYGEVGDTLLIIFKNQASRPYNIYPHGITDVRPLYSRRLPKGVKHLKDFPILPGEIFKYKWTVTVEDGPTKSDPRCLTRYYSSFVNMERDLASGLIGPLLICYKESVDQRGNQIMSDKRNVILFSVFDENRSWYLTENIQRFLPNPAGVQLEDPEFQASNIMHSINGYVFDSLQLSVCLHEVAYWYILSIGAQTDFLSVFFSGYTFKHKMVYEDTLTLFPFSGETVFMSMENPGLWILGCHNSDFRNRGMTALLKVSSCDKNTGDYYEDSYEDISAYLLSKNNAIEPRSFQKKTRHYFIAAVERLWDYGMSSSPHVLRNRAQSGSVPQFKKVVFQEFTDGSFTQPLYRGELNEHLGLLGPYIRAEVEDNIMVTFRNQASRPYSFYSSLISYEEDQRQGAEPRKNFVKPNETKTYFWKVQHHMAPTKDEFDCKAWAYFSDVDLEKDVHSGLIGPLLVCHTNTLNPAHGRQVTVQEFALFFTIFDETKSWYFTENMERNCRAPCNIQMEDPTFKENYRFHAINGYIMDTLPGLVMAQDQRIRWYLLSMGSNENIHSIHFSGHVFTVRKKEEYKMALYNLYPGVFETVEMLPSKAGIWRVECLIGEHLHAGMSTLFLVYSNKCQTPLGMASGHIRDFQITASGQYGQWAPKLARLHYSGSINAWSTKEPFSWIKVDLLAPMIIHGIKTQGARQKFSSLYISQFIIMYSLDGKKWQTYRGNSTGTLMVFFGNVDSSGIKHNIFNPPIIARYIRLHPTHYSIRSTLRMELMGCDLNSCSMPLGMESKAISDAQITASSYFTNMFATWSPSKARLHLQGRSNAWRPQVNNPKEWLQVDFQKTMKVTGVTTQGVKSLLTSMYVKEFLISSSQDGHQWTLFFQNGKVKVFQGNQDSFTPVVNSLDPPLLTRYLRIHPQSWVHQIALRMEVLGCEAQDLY

T2: Factor VIIIa (recombinant FVIII, Kogenate FS, activated with alpha-thrombin) (UniProt P00451 20-2351)
T2 construct: also called FVIIIa
T2 sequence (looked up): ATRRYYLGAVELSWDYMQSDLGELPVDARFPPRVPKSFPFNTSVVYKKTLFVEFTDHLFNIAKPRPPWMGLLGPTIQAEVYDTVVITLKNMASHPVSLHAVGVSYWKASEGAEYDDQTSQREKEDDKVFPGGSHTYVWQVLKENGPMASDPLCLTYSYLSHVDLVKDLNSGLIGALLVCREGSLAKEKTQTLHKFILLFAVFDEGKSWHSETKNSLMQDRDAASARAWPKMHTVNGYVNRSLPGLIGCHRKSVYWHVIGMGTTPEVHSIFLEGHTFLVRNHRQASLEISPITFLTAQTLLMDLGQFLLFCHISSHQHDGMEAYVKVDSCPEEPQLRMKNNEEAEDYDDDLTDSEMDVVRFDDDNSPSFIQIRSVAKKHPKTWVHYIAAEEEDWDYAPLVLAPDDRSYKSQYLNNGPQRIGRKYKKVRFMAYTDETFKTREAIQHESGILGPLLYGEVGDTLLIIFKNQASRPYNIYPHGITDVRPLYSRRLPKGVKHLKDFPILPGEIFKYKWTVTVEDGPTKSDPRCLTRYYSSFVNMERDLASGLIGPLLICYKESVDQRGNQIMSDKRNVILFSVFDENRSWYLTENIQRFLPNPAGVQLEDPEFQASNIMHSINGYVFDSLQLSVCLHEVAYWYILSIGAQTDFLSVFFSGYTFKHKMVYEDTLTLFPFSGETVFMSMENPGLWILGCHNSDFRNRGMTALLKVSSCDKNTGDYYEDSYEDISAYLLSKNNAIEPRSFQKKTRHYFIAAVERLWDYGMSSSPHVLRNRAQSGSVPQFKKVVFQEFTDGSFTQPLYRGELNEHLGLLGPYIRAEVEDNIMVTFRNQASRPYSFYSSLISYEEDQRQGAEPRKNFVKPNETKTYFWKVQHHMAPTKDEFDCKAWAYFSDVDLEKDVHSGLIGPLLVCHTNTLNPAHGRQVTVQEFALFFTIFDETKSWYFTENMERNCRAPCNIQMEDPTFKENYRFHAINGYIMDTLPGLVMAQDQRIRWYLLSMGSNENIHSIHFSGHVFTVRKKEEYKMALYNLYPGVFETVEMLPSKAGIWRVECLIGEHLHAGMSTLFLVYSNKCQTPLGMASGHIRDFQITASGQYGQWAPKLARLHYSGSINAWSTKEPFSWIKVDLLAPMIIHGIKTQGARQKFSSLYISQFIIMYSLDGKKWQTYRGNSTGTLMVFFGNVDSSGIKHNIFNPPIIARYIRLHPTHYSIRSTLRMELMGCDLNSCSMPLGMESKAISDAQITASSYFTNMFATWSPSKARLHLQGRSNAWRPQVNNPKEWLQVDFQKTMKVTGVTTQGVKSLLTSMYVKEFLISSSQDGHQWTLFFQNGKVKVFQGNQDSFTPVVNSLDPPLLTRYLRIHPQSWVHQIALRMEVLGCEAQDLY


How the values were obtained:
[1] = target: T1, Factor VIIIa (FVIIIa), from recombinant …; experiment: apparent functional KD (KD-app): FX activation rate vs FVIIIa titration, fluorogenic Xase assay with PC/PS vesicles and Ca2+
Excerpt: (§1) The activity of alpha-thrombin was then quenched by the addition of a highly specific thrombin inhibitor, hirudin, prior to initiating the assay.

[2] = target: T1, Factor VIIIa (FVIIIa), from recombinant …; experiment: ratio of KD-app of Catalyst Biosciences WT FIXa to KD-app of the variant, same Xase assay
Excerpt: as §1

[3] = target: T2, Factor VIIIa (recombinant FVIII, …); experiment: functional cofactor affinity KD-app: fluorogenic FX activation (Xase) assay, FVIIIa titrated, PC/PS vesicles, saturating FX
Description: Reactions were monitored in a SpectraMax fluorescence plate reader for 30 min at 37° C. A standard curve of free AMC served as the conversion factor for RFU to μM in the subsequent data analysis calculations using a dose range that covered 0 μM to 100 μM AMC.

Binder | Kd [1] | KD-WT/KD-mut [2] | Kd [3]
FIXa variant A103N/N105S/K247N/N249S/R318Y/R338E/R403E/E410N (enzyme) light: YNSGKLEEFVQGNLERECMEEKCSFEEAREVFENTERTTEFWKQYVDGDQCESNPCLNGGSCKDDINSYECWCPFGFEGKNCELDVTCNIKNGRCEQFCKNSNDSKVVCSCTEGYRLAENQKSCEPAVPFPCGRVSVSQTSKLTR heavy: VVGGEDAKPGQFPWQVVLNGKVDAFCGGSIVNEKWIVTAAHCVETGVKITVVAGEHNIEETEHTEQNRSVIRIIPHHNYNAAINKYNHDIALLELDEPLVLNSYVTPICIADKEYTNIFLKFGSGYVSGWGRVFHKGYSALVLQYLRVPLVDRATCLESTKFTIYNNMFCAGFHEGGRDSCQGDSGGPHVTEVEGTSFLTGIISWGEECAMKGKYGIYTKVSEYVNWIKNKTKLT | 93.1 nM | 1 fold | 
FIXa-Y155F/R318Y/R338E/T343R/E410N (enzyme) chain 1: YNSGKLEEFVQGNLERECMEEKCSFEEAREVFENTERTTEFWKQYVDGDQCESNPCLNGGSCKDDINSYECWCPFGFEGKNCELDVTCNIKNGRCEQFCKNSADNKVVCSCTEGYRLAENQKSCEPAVPFPCGRVSVSQTSKLTR chain 2: VVGGEDAKPGQFPWQVVLNGKVDAFCGGSIVNEKWIVTAAHCVETGVKITVVAGEHNIEETEHTEQKRNVIRIIPHHNYNAAINKYNHDIALLELDEPLVLNSYVTPICIADKEYTNIFLKFGSGYVSGWGRVFHKGYSALVLQYLRVPLVDRATCLESTKFRIYNNMFCAGFHEGGRDSCQGDSGGPHVTEVEGTSFLTGIISWGEECAMKGKYGIYTKVSRYVNWIKNKTKLT |  |  | 7.4 nM
FIXa variant D104N/K106S/I251S/R318Y/R338E/R403E/E410N (enzyme) light: YNSGKLEEFVQGNLERECMEEKCSFEEAREVFENTERTTEFWKQYVDGDQCESNPCLNGGSCKDDINSYECWCPFGFEGKNCELDVTCNIKNGRCEQFCKNSANNSVVCSCTEGYRLAENQKSCEPAVPFPCGRVSVSQTSKLTR heavy: VVGGEDAKPGQFPWQVVLNGKVDAFCGGSIVNEKWIVTAAHCVETGVKITVVAGEHNIEETEHTEQKRNVSRIIPHHNYNAAINKYNHDIALLELDEPLVLNSYVTPICIADKEYTNIFLKFGSGYVSGWGRVFHKGYSALVLQYLRVPLVDRATCLESTKFTIYNNMFCAGFHEGGRDSCQGDSGGPHVTEVEGTSFLTGIISWGEECAMKGKYGIYTKVSEYVNWIKNKTKLT | 54.7 nM | 1.7 fold | 
FIXa-Y155F/K247N/N249S/R318Y/R338E/T343R (enzyme) chain 1: YNSGKLEEFVQGNLERECMEEKCSFEEAREVFENTERTTEFWKQYVDGDQCESNPCLNGGSCKDDINSYECWCPFGFEGKNCELDVTCNIKNGRCEQFCKNSADNKVVCSCTEGYRLAENQKSCEPAVPFPCGRVSVSQTSKLTR chain 2: VVGGEDAKPGQFPWQVVLNGKVDAFCGGSIVNEKWIVTAAHCVETGVKITVVAGEHNIEETEHTEQNRSVIRIIPHHNYNAAINKYNHDIALLELDEPLVLNSYVTPICIADKEYTNIFLKFGSGYVSGWGRVFHKGYSALVLQYLRVPLVDRATCLESTKFRIYNNMFCAGFHEGGRDSCQGDSGGPHVTEVEGTSFLTGIISWGEECAMKGKYGIYTKVSRYVNWIKEKTKLT |  |  | 14 nM
FIXa-Y155F/R338E/T343R/E410N (enzyme) chain 1: YNSGKLEEFVQGNLERECMEEKCSFEEAREVFENTERTTEFWKQYVDGDQCESNPCLNGGSCKDDINSYECWCPFGFEGKNCELDVTCNIKNGRCEQFCKNSADNKVVCSCTEGYRLAENQKSCEPAVPFPCGRVSVSQTSKLTR chain 2: VVGGEDAKPGQFPWQVVLNGKVDAFCGGSIVNEKWIVTAAHCVETGVKITVVAGEHNIEETEHTEQKRNVIRIIPHHNYNAAINKYNHDIALLELDEPLVLNSYVTPICIADKEYTNIFLKFGSGYVSGWGRVFHKGRSALVLQYLRVPLVDRATCLESTKFRIYNNMFCAGFHEGGRDSCQGDSGGPHVTEVEGTSFLTGIISWGEECAMKGKYGIYTKVSRYVNWIKNKTKLT |  |  | 8.5 nM
